The values that follow come from publication PMC9313502 (Advanced Science, 2022).

The target in the test is Biotinylated recombinant human TNF‐α (human, UniProt P01375 77-233, biotin on primary amines (lysine conjugation, NHS-PEG4-biotin)). Briefly: ELISA; sparsely biotinylated hTNF-α (7.5 nM) held on avidin-coated 96-well plates; hTNFR1-ECD-HRP in solution, read at 450 nm with TMB; apparent EC50. To be noted: both partners purified. In general terms: In an ELISA, binding on a coated surface is turned into a signal by an enzyme label.
Biotinylated recombinant human TNF‐α, sequence (P01375 77-233): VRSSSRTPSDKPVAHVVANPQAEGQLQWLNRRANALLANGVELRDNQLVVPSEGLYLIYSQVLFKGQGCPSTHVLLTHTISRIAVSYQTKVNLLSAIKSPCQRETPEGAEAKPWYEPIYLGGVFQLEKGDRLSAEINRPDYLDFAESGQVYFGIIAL

B1: HRP‐tagged human TNF‐α receptor 1 extracellular domain (receptor)
chain: RDSVCPQGKYIHPQNNSICCTKCHKGTYLYNDCPGPGQDTDCRECESGSFTASENHLRHCLSCSKCRKEMGQVEISSCTVDRDTVCGCRKNQYRHYWSENLFQCFNCSLCLNGTVHLSCQEKQNTVCTCHAGFFLRENECVSCSNCKKSLECTKLCLPQIEN
modifications: conjugated to horse‐radish peroxidase (HRP Conjugation Kit, Proteintech PK20001)
For B1, the EC50 (usually the concentration needed to bring the measured effect to its halfway point) was determined as 4.6 nM.
